Test results reported in patent EP4682168A1, “ANTI-LIV-1 ANTIBODY AND ANTI-LIV-1 ANTIBODY-DRUG CONJUGATE, AND PHARMACEUTICAL USE THEREOF” (priority 2023, dated 2024).
Where a chain is given by its changes, count along the chain named.

Tests used:
[1] = molecular target: T1, LIV-1 expressed on the cell surface of cancer cell lines (human) (UniProt Q13433); test: flow cytometry, isotype control, PC-3 cells (endogenous LIV-1)
T1 sequence (looked up): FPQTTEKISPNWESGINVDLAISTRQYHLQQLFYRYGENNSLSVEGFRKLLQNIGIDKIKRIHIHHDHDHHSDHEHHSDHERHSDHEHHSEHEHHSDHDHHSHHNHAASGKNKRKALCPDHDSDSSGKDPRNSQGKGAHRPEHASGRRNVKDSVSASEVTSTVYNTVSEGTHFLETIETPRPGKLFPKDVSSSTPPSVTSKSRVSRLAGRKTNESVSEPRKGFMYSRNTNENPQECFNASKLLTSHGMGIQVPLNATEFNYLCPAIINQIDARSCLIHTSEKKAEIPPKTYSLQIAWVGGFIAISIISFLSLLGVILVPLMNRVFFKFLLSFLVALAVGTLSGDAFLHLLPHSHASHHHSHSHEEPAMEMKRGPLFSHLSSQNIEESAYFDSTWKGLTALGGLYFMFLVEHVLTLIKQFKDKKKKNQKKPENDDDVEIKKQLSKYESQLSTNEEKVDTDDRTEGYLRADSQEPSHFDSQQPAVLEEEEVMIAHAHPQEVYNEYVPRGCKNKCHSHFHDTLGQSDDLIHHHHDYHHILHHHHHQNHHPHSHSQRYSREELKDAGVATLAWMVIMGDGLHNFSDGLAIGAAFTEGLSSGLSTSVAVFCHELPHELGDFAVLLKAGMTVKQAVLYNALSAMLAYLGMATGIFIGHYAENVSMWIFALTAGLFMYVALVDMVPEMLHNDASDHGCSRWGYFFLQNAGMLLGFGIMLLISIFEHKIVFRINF

[2] = molecular target: T1, LIV-1 expressed on the cell surface of cancer cell lines (human); test: flow cytometry, isotype control, Calu6 cells (endogenous LIV-1)
[3] = molecular target: T1, LIV-1 expressed on the cell surface of cancer cell lines (human); test: flow cytometry, isotype control, HCC 1806 cells (endogenous LIV-1)
[4] = molecular target: T1, LIV-1 expressed on the cell surface of cancer cell lines (human); test: flow cytometry, isotype control, MCF7-Liv1 #7 cells (high exogenous LIV-1)
[5] = molecular target: T1, LIV-1 expressed on the cell surface of cancer cell lines (human); test: flow cytometry, isotype control, MCF7-Liv1 #17 cells (high exogenous LIV-1)
[6] = molecular target: T1, LIV-1 expressed on the cell surface of cancer cell lines (human); test: flow cytometry, isotype control, MCF7-Liv1 #12 cells (moderate exogenous LIV-1)
[7] = molecular target: T1, LIV-1 expressed on the cell surface of cancer cell lines (human); test: flow cytometry, 10 µg/mL antibody, PC-3 cells (endogenous LIV-1)
[8] = molecular target: T1, LIV-1 expressed on the cell surface of cancer cell lines (human); test: flow cytometry, 10 µg/mL antibody, Calu6 cells (endogenous LIV-1)
[9] = molecular target: T1, LIV-1 expressed on the cell surface of cancer cell lines (human); test: flow cytometry, antibody A against IgG1 isotype control, PC-3 cells
[10] = molecular target: T1, LIV-1 expressed on the cell surface of cancer cell lines (human); test: flow cytometry, 10 µg/mL antibody, HCC 1806 cells (endogenous LIV-1)
[11] = molecular target: T1, LIV-1 expressed on the cell surface of cancer cell lines (human); test: flow cytometry, antibody A against IgG1 isotype control, Calu6 cells
[12] = molecular target: T1, LIV-1 expressed on the cell surface of cancer cell lines (human); test: flow cytometry, antibody A against IgG1 isotype control, HCC 1806 cells
[13] = molecular target: T1, LIV-1 expressed on the cell surface of cancer cell lines (human); test: flow cytometry, antibody A against IgG1 isotype control, MCF7-Liv1 #7 cells
[14] = molecular target: T1, LIV-1 expressed on the cell surface of cancer cell lines (human); test: flow cytometry, 10 µg/mL antibody, MCF7-Liv1 #7 cells (high exogenous LIV-1)
[15] = molecular target: T1, LIV-1 expressed on the cell surface of cancer cell lines (human); test: flow cytometry, antibody A against IgG1 isotype control, MCF7-Liv1 #12 cells
[16] = molecular target: T1, LIV-1 expressed on the cell surface of cancer cell lines (human); test: flow cytometry, antibody A against IgG1 isotype control, MCF7-Liv1 #17 cells
[17] = molecular target: T1, LIV-1 expressed on the cell surface of cancer cell lines (human); test: flow cytometry, 10 µg/mL antibody, MCF7-Liv1 #17 cells (high exogenous LIV-1)
[18] = molecular target: T1, LIV-1 expressed on the cell surface of cancer cell lines (human); test: flow cytometry, 10 µg/mL antibody, MCF7-Liv1 #12 cells (moderate exogenous LIV-1)
[19] = molecular target: human LIV-1 antigen (with a His tag, NP_036451.1, amino acids Phe229-Ile323) (human) (UniProt Q13433); test: ForteBio (BLI)
[20] = molecular target: T2, LIV-1 expressed on the cell surface of cancer cell lines (human, UniProt Q13433 29-755); test: cell-based or functional assay
T2 sequence (looked up): T1 sequence (looked up)

[21] = test system: PC3 mouse subcutaneous tumors; test: PC3 prostate cancer xenograft efficacy study; type: in vivo, CD1 athymic nude mice; settings: Single dose of 10 mg/kg, intravenous injection
Experimental: (§1) Tumor cells grown in the implantation culture of CD1 athymic nude mice: Calu-6 (2.5 × 10^6 cells in 50% matrigel) from ATCC, PC-3 (2.5 × 10^6 cells) from ATCC, and PA-1 (5 × 10^6 cells in 50% matrigel) from ATCC. Tumor cells grown in the implantation culture of NSG mice: HCC1806 (2.5 × 10^6 cells in 50% matrigel) from ATCC and MCF-7 (10 × 10^6 cells; for the in vivo growth of MCF-7, 8.5 µg/mL estradiol was added to the drinking water of female mice) from NCI.
(§2) When the tumors grew to 150 mm^3, the humanized LIV-1 ADC or the non-binding control ADC (1 mg/kg, 3 mg/kg, 6 mg/kg, or 10 mg/kg) was administered by intravenous injection once every four days for a total of four administrations (q4d × 4), by intravenous injection once every week for a total of 2 administrations (qw × 2), or by single intravenous injection. The tumor volume was monitored using a caliper, and the animals were euthanized when the tumor volume reached about 2000 mm^3. Tumor volume plots were continued for each group until one or more animals were euthanized. All animal procedures were conducted in a facility approved by the Association for Assessment and Accreditation of Laboratory Animal Care in accordance with protocols approved by the Institutional Animal Care and Use Committee. TGI was calculated as follows: TGI (%) = 1−[(Td−T0)/(Cd−C0)] × 100% [formula] […]

[22] = test system: PA-1 mouse subcutaneous tumors; test: PA-1 ovarian cancer xenograft efficacy study; type: in vivo, CD1 athymic nude mice; settings: Single dose of 3 mg/kg, intravenous injection
Experimental: as §1, §2

## non-specific isotype control commercial antibody IgG (BioXCell, BE0297)
[1]
  MFI (RFU): 2840 RFU
[2]
  MFI (RFU): 4440 RFU
[3]
  MFI (RFU): 2180 RFU
[4]
  MFI (RFU): 3410 RFU
[5]
  MFI (RFU): 1510 RFU
[6]
  MFI (RFU): 3120 RFU

B1: Antibody A (antibody, human IgG1, kappa, V domains shown)
VH: EVQLVQSGAEVKKPGATVKISCKASGLNIEDYYMHWVQQAPGKGLEWMGWIDPENGDTEYAEKFQGRVTITADTSTNTAYMELSSLRSEDTAVYYCTVHNAHYGTWFAYWGQGTTVTVSS
VL: DIVMTQTPLSLSVTPGQPASISCRSSQTLVRSDGNTYLEWYLQKPGQSPQLLIYRVSNRFSGVPDRFSGSGSGTDFTLKISRVEAEDVGVYYCFQGSHVPYTFGGGTKLEIKR
[7]
  MFI (RFU): 5660 RFU
[8]
  MFI (RFU): 11100 RFU
[9]
  MFI ratio (MFI of anti-LIV-1/MFI of control antibody): 2
[10]
  MFI (RFU): 4420 RFU
[11]
  MFI ratio (MFI of anti-LIV-1/MFI of control antibody): 2.5
[12]
  MFI ratio (MFI of anti-LIV-1/MFI of control antibody): 2
[13]
  MFI ratio (MFI of anti-LIV-1/MFI of control antibody): 38.7
[14]
  MFI (RFU): 132000 RFU
[15]
  MFI ratio (MFI of anti-LIV-1/MFI of control antibody): 6.7
[16]
  MFI ratio (MFI of anti-LIV-1/MFI of control antibody): 71.1
[17]
  MFI (RFU): 107000 RFU
[18]
  MFI (RFU): 20900 RFU

B2: Antibody A-1 (antibody, human IgG1, kappa, V domains shown)
VH: B1 VH with N77D
VL: B1 VL
[19]
  Kd: 0.0524 nM
  koff: 4.17e-05 s⁻¹
  kon: 796000 M⁻¹ s⁻¹

B3: A-BrAcMMAE (antibody, human IgG1, kappa, V domains shown)
VH: B1 VH
VL: B1 VL
modifications: MMAE drug-linker (compound 11, bromoacetyl-Val-Cit-PAB-MMAE) on reduced cysteine sulfhydryls; average DAR 3.5-4; positions not given
[20]
  IC50 (nM) for inhibition of proliferation, Calu6 cells, CellTiterGlo2: 11 nM
  IC50 (nM) for inhibition of proliferation, MCF7-Liv1 #7 cells, CellTiterGlo2: 0.03 nM
  IC50 (nM) for inhibition of proliferation, MCF7-Liv1 #12 cells, CellTiterGlo2: 0.031 nM
  IC50 (nM) for inhibition of proliferation, MCF7-Liv1 #17 cells, CellTiterGlo2: 0.05 nM

B4: L-McMMAE: Ladiratuzumab antibody L conjugated to MC-MMAE, DAR of 3.5-4; prior-art ADC targeting Liv-1 (conjugate, chains of the INN, looked up)
VH: QVQLVQSGAEVKKPGASVKVSCKASGLTIEDYYMHWVRQAPGQGLEWMGWIDPENGDTEYGPKFQGRVTMTRDTSINTAYMELSRLRSDDTAVYYCAVHNAHYGTWFAYWGQGTLVTVSS
VL: DVVMTQSPLSLPVTLGQPASISCRSSQSLLHSSGNTYLEWYQQRPGQSPRPLIYKISTRFSGVPDRFSGSGSGTDFTLKISRVEAEDVGVYYCFQGSHVPYTFGGGTKVEIK
modifications: MC-MMAE payload
[21]
  Tumor growth inhibition rate TGI% (day 24 after administration): 103.92%
[22]
  Tumor growth inhibition rate TGI% (day 13 after administration): 26.68%
